Measured values reported in patent US20250361288A1 (Gilead, published 2025).
Like-named read-outs stand apart in the source and are kept apart here.

T1: recombinant DcR3 protein (human DcR3 residues 33-300 linked to the N-terminal of rabbit Fc) (human, UniProt O95407 33-300)
T1 construct: range 33-300; Expressed in Expi293F, purified on protein A; not shown: rabbit Fc
T1 sequence (looked up): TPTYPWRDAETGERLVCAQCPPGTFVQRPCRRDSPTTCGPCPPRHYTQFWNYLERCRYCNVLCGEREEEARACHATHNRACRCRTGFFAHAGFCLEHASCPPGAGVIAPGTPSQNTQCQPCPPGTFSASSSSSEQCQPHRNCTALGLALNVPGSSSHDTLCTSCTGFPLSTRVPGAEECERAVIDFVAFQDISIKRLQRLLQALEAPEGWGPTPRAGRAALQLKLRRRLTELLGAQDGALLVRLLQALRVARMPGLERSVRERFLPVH

T2: mouse HVEM extracellular domain fused with an Fc fragment at the C-terminus (mouse, UniProt Q80WM9 39-206, limits assumed)
T2 construct: extracellular domain; Bought; also called mHVEM; not shown: Fc fragment at the C-terminus
T2 sequence (looked up): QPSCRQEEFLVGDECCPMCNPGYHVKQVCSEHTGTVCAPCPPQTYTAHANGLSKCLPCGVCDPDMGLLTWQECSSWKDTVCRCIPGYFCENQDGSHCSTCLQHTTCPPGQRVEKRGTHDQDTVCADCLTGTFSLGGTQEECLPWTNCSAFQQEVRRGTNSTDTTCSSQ

B1: LIGHT (74-240) (ligand)
chain: DGPAGSWEQLIQERRSHEVNPAAHLTGANSSLTGSGGPLLWETQLGLAFLRGLSYHDGALVVTKAGYYYIYSKVQLGGVGCPLGLASTITHGLYKRTPRYPEELELLVSQQSPCGRATSSSRVWWDSSFLGGVVHLEAGEKVVVRVLDERLVRLRDGTRSYFGAFMV
notes: Soluble protein carries an N-terminal His tag; also called wild-type human LIGHT; LIGHT (74-240) (wt)
B2: human HVEM extracellular domain fused with an Fc fragment at the C-terminus (Fc fusion, UniProt Q92956 39-202, looked up)
chain: LPSCKEDEYPVGSECCPKCSPGYRVKEACGELTGTVCEPCPPGTYIAHLNGLSKCLQCQMCDPAMGLRASRNCSRTENAVCGCSPGHFCIVQDGDHCAACRAYATSSPGQRVQKGGTESQDTLCQNCPPGTFSPNGTLEECQHQTKCSWLVTKAGAGTSSSHWV
notes: extracellular domain; Bought; also called hHVEM; not shown: Fc fragment at the C-terminus

Legend:
[1] = molecular target: T1, recombinant DcR3 protein (human DcR3 …); assay: ELISA on coated DcR3-rabbit Fc
Description: To test whether the muteins can bind to DcR3, the recombinant DcR3 protein was generated by linking human DcR3 residues 33-300 to the N-terminal of rabbit Fc. The recombinant proteins were expressed in Expi293F and affinity-purified using protein A beads, as previously described. Human DcR3 proteins were immobilized onto maxiSorp 96-well ELISA plates (Thermo Fisher) at a concentration of 0.5 μg/mL and then blocked with 2% BSA-PBS buffer for one hour. The LIGHT variants were added to the plates at various dilutions, with a maximum concentration of 10 nM. The plates were incubated for one hour, washed four times with PBST, and then incubated with mouse anti-His tag antibody (#105327, Sino Biological) for 1 hour. The plates were further incubated with HRP-conjugated goat anti-mouse secondary antibody (#SSA006, Sino Biological) before being washed three times with PBST and treated with TMB substrate (#34029, ThermoFisher). The plates were read at 450 nm on a SpectraMax M5 microplate reader (Molecule Devices). The ELISA results were analyzed using GraphPad Prism 9.0 software and the EC50s (half maximal effective concentration) were summarized in Table 5-2.

[2] = molecular target: T3, human LTβR extracellular domain fused with an Fc fragment at the C-terminus (human, UniProt P36941 31-227); assay: ELISA on coated target-Fc
T3 construct: extracellular domain; Bought; also called hLTβR; not shown: Fc fragment at the C-terminus
Description: (§1) Nunc MaxiSorp 96-well plates (Thermofisher) were coated with target proteins (1 μg/ml), and then blocked with 2% BSA-PBS buffer for one hour. Serial dilutions of the LIGHT muteins were added with a maximum concentration of 200 ng/ml. The plates were incubated for one hour, washed four times with PBST, and then incubated with mouse anti-His tag antibody (#105327, Sino Biological) for 1 hour. The plates were further incubated with HRP-conjugated goat anti-mouse secondary antibody (#SSA006, Sino Biological) before being washed three times with PBST and treated with TMB substrate (#34029, ThermoFisher). The plates were read at 450 nm on a SpectraMax M5 microplate reader (Molecule Devices). The ELISA results were analyzed using GraphPad Prism 9.0 software and the EC50s (half maximal effective concentration) were summarized in Table 5-1 and Table 5-2.

[3] = molecular target: T4, mouse LTβR extracellular domain fused with an Fc fragment at the C-terminus (mouse, UniProt P50284 31-223); assay: ELISA on coated target-Fc
T4 construct: extracellular domain; Bought; also called mLTβR; not shown: Fc fragment at the C-terminus
Description: as §1

[4] = molecular target: B2; assay: ELISA on coated target-Fc
Description: as §1

[5] = molecular target: T3, human LTβR extracellular domain fused …; assay: ELISA on coated target-Fc; remark: listed apart in the source
Description: as §1

[6] = molecular target: T2, mouse HVEM extracellular domain fused …; assay: phage ELISA
Summary of the method: (§2)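 Supernatants from fourth-round clones rescued with helper phage were applied to plates coated with 1 μg/ml target for 1 h at room temperature. Bound phage detected with HRP anti-M13 and TMB at OD450; clones were called positive when the target/BSA ratio was >3.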

LIGHT (74-240) = molecular target: B1; assay: ELISA on coated target-Fc
Description: as §1

[7] = molecular target: T4, mouse LTβR extracellular domain fused …; assay: ELISA on coated target-Fc; remark: listed apart in the source
Description: as §1

[8] = molecular target: B2; assay: ELISA on coated target-Fc, Table 5-1
Description: as §1

[9] = molecular target: B2; assay: ELISA on coated target-Fc; remark: listed apart in the source
Description: as §1

[10] = molecular target: T4, mouse LTβR extracellular domain fused …; assay: phage ELISA
Summary of the method: as §2

T4 sequence (P50284 31-223): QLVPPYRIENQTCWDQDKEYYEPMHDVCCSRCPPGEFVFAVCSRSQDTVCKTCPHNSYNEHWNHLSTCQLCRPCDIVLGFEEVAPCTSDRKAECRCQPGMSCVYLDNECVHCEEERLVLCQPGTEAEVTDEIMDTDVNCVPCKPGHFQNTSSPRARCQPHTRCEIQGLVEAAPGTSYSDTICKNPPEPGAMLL
T3 sequence (P36941 31-227): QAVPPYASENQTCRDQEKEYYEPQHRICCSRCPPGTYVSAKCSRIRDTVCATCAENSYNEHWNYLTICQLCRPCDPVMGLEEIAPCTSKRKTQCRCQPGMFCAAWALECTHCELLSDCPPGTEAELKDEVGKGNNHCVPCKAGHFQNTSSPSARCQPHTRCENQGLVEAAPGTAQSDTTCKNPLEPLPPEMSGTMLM

| Binder | EC50 [1] | EC50 [2] | EC50 [3] | EC50 [4] | EC50 [5] | binding result [6] | binding result (LIGHT (74-240)) | EC50 [7] | binding result [8] | EC50 [9] | binding result [10] |
| --- | --- | --- | --- | --- | --- | --- | --- | --- | --- | --- | --- |
| B1 | 0.247 nM | 0.365 nM | 0.885 nM | 0.992 nM | 0.22 µg/mL | binds |  |  |  |  |  |
| B2 |  |  |  |  |  |  | binds |  |  |  |  |
| LIGHT-1 (ligand, Printed mutations: V152M, W198Q, R228L; Soluble protein carries an N-terminal His tag) DGPAGSWEQLIQERRSHEVNPAAHLTGANSSLTGSGGPLLWETQLGLAFLRGLSYHDGALVVTKAGYYYIYSKVQLGGMGCPLGLASTITHGLYKRTPRYPEELELLVSQQSPCGRATSSSRVWQDSSFLGGVVHLEAGEKVVVRVLDERLVRLLDGTRSYFGAFMV |  | 0.262 nM | 0.8 nM |  | 0.0493 µg/mL | no binding |  | 0.0605 µg/mL | no binding |  |  |
| LIGHT-52 (ligand, Printed mutations: L220S; Soluble protein carries an N-terminal His tag) DGPAGSWEQLIQERRSHEVNPAAHLTGANSSLTGSGGPLLWETQLGLAFLRGLSYHDGALVVTKAGYYYIYSKVQLGGVGCPLGLASTITHGLYKRTPRYPEELELLVSQQSPCGRATSSSRVWWDSSFLGGVVHLEAGEKVVVRVSDERLVRLRDGTRSYFGAFMV | 0.19 nM | 0.33 nM | 2.07 nM | 0.599 nM | 0.0577 µg/mL | binds |  | 0.0279 µg/mL |  | 0.019 µg/mL |  |
| LIGHT-3 (ligand, Printed mutations: G150A, L220S; Soluble protein carries an N-terminal His tag) DGPAGSWEQLIQERRSHEVNPAAHLTGANSSLTGSGGPLLWETQLGLAFLRGLSYHDGALVVTKAGYYYIYSKVQLAGVGCPLGLASTITHGLYKRTPRYPEELELLVSQQSPCGRATSSSRVWWDSSFLGGVVHLEAGEKVVVRVSDERLVRLRDGTRSYFGAFMV |  |  |  |  | 0.0436 µg/mL | binds |  | 0.0401 µg/mL | no binding |  |  |
| LIGHT-90 (ligand, Printed mutations: S160G, T161G, L220T, E222S; Soluble protein carries an N-terminal His tag) DGPAGSWEQLIQERRSHEVNPAAHLTGANSSLTGSGGPLLWETQLGLAFLRGLSYHDGALVVTKAGYYYIYSKVQLGGVGCPLGLAGGITHGLYKRTPRYPEELELLVSQQSPCGRATSSSRVWWDSSFLGGVVHLEAGEKVVVRVTDSRLVRLRDGTRSYFGAFMV | 0.692 nM | 1.78 nM | 0.978 nM | 2.12 nM |  |  |  |  |  |  |  |
| LIGHT-86 (ligand, Printed mutations: G150R, S160R, L220S; Soluble protein carries an N-terminal His tag) DGPAGSWEQLIQERRSHEVNPAAHLTGANSSLTGSGGPLLWETQLGLAFLRGLSYHDGALVVTKAGYYYIYSKVQLRGVGCPLGLARTITHGLYKRTPRYPEELELLVSQQSPCGRATSSSRVWWDSSFLGGVVHLEAGEKVVVRVSDERLVRLRDGTRSYFGAFMV | 25.9 nM | 0.336 nM | 0.327 nM | 5.27 nM |  |  |  |  |  |  |  |
| LIGHT-7 (ligand, Printed mutations: P155R, L220Q, R232H; Soluble protein carries an N-terminal His tag) DGPAGSWEQLIQERRSHEVNPAAHLTGANSSLTGSGGPLLWETQLGLAFLRGLSYHDGALVVTKAGYYYIYSKVQLGGVGCRLGLASTITHGLYKRTPRYPEELELLVSQQSPCGRATSSSRVWWDSSFLGGVVHLEAGEKVVVRVQDERLVRLRDGTHSYFGAFMV |  |  |  |  | 0.109 µg/mL | binds |  | 0.156 µg/mL | no binding |  |  |
| LIGHT-2 (ligand, Printed mutations: R189S, W198Q, R228L; Soluble protein carries an N-terminal His tag) DGPAGSWEQLIQERRSHEVNPAAHLTGANSSLTGSGGPLLWETQLGLAFLRGLSYHDGALVVTKAGYYYIYSKVQLGGVGCPLGLASTITHGLYKRTPRYPEELELLVSQQSPCGSATSSSRVWQDSSFLGGVVHLEAGEKVVVRVLDERLVRLLDGTRSYFGAFMV |  | 0.328 nM | 2.06 nM |  | 0.0762 µg/mL | no binding |  |  | no binding |  |  |
| LIGHT-5 (ligand, Printed mutations: T161P, R189S, W198Q, R228L; Soluble protein carries an N-terminal His tag) DGPAGSWEQLIQERRSHEVNPAAHLTGANSSLTGSGGPLLWETQLGLAFLRGLSYHDGALVVTKAGYYYIYSKVQLGGVGCPLGLASPITHGLYKRTPRYPEELELLVSQQSPCGSATSSSRVWQDSSFLGGVVHLEAGEKVVVRVLDERLVRLLDGTRSYFGAFMV |  |  |  |  | 0.0538 µg/mL | binds |  |  | no binding |  | binds |
| LIGHT-60 (ligand, Printed mutations: S160G, T161G, L220S, E222S; Soluble protein carries an N-terminal His tag) DGPAGSWEQLIQERRSHEVNPAAHLTGANSSLTGSGGPLLWETQLGLAFLRGLSYHDGALVVTKAGYYYIYSKVQLGGVGCPLGLAGGITHGLYKRTPRYPEELELLVSQQSPCGRATSSSRVWWDSSFLGGVVHLEAGEKVVVRVSDSRLVRLRDGTRSYFGAFMV | 0.311 nM | 0.919 nM | 0.63 nM | 0.639 nM |  |  |  |  |  |  |  |
| LIGHT-58 (ligand, Printed mutations: S160G, T161G, L220S; Soluble protein carries an N-terminal His tag) DGPAGSWEQLIQERRSHEVNPAAHLTGANSSLTGSGGPLLWETQLGLAFLRGLSYHDGALVVTKAGYYYIYSKVQLGGVGCPLGLAGGITHGLYKRTPRYPEELELLVSQQSPCGRATSSSRVWWDSSFLGGVVHLEAGEKVVVRVSDERLVRLRDGTRSYFGAFMV | 0.184 nM | 0.309 nM | 0.273 nM | 0.432 nM |  |  |  |  |  |  |  |
| LIGHT-61 (ligand, Printed mutations: S160G, T161P, L220S, E222S; Soluble protein carries an N-terminal His tag) DGPAGSWEQLIQERRSHEVNPAAHLTGANSSLTGSGGPLLWETQLGLAFLRGLSYHDGALVVTKAGYYYIYSKVQLGGVGCPLGLAGPITHGLYKRTPRYPEELELLVSQQSPCGRATSSSRVWWDSSFLGGVVHLEAGEKVVVRVSDSRLVRLRDGTRSYFGAFMV | 0.213 nM | 0.482 nM | 0.498 nM | 0.46 nM |  |  |  |  |  |  |  |
